Data reported in the supplement of paper PMC10065799, “High-throughput profiling of sequence recognition by tyrosine kinases and SH2 domains using bacterial peptide display” (eLife, 2023).

Experiments:
AncSZ = test: phosphorylation enrichment, bacterial display (enrichment ratio); higher = better substrate or ligand; peptides without Tyr show the background
EPHB1 = EPHB1 (UniProt P54762); test: as above
EPHB2 = EPHB2 (UniProt P29323); test: as above
FGFR1 = FGFR1 (UniProt P11362); test: as above
FGFR3 = FGFR3 (UniProt P22607); test: as above
Sequence of FGFR3 (P22607 whole entry, looked up): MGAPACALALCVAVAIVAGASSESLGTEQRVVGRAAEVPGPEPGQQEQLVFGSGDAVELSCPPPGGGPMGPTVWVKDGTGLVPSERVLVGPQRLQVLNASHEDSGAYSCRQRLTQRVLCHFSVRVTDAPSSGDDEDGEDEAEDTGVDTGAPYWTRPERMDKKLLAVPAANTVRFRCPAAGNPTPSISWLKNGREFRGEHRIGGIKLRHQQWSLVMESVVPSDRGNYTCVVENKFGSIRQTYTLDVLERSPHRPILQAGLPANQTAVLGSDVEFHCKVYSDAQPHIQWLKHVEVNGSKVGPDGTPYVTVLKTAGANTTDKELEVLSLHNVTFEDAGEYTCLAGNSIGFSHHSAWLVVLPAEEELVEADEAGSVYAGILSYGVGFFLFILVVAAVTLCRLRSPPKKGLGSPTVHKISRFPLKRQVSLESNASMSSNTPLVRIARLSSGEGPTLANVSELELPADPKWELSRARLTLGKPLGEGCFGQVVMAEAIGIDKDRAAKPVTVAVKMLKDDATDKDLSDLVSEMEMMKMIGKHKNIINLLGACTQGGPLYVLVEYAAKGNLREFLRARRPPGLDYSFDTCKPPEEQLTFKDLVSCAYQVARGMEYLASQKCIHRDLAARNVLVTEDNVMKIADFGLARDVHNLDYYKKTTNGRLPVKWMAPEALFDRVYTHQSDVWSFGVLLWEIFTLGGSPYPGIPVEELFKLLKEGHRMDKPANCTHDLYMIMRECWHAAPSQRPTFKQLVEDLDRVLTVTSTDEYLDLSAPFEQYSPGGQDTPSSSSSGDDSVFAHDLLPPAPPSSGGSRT

Fer (mouse) = test: as above
Fes = Fes (UniProt P07332); test: as above
Fyn = Fyn (UniProt P06241); test: as above
Sequence of Fyn (P06241 whole entry, looked up): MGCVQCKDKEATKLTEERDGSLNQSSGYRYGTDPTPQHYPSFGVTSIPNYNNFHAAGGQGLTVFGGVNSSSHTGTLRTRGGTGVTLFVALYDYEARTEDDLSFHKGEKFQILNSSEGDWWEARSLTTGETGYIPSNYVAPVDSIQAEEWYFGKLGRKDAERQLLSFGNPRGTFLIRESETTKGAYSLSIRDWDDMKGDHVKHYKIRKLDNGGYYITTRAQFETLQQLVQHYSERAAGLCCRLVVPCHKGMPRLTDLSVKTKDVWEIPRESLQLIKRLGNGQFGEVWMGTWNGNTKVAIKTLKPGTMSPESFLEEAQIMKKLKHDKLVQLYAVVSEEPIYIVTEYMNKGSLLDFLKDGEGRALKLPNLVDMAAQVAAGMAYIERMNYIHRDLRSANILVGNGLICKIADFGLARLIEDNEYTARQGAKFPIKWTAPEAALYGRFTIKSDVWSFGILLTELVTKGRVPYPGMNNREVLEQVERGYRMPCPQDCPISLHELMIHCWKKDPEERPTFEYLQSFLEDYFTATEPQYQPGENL

Hck = Hck (UniProt P08631); test: as above
Jak2 = Jak2 (UniProt O60674); test: as above
MERTK = MERTK (UniProt Q12866); test: as above
Sequence of MERTK (Q12866 whole entry, looked up): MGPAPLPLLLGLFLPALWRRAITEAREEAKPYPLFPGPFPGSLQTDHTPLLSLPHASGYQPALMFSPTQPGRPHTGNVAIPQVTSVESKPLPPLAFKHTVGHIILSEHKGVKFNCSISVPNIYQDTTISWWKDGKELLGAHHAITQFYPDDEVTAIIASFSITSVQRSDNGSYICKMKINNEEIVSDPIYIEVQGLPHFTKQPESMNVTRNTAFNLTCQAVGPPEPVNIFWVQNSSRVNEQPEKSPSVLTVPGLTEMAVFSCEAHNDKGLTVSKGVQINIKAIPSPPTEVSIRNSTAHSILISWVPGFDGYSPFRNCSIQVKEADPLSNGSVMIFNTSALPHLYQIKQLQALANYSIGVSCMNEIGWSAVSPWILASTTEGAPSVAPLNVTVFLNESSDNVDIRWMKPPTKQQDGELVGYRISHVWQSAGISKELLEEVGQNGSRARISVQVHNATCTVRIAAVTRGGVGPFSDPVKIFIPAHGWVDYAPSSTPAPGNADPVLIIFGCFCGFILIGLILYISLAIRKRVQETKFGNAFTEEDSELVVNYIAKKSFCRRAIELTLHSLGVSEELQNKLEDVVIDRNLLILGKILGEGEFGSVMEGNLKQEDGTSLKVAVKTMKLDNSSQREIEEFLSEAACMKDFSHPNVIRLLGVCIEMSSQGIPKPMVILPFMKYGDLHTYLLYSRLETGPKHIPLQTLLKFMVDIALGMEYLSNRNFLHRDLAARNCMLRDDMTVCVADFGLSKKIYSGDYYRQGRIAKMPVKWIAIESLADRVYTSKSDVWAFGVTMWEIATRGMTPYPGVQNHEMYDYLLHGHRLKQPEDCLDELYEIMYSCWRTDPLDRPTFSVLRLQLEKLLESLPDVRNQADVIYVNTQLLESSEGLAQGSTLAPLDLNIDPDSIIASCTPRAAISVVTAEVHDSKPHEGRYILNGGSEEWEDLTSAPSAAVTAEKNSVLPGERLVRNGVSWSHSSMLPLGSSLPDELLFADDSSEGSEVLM

c-Abl (mouse) = test: as above
c-Src = test: as above
Grb2 SH2 = Grb2 SH2 (UniProt P62993); test: SH2 binding enrichment of the phosphorylated peptide, bacterial display (enrichment ratio); higher = better substrate or ligand; peptides without Tyr show the background
Sequence of Grb2 SH2 (P62993 whole entry, looked up): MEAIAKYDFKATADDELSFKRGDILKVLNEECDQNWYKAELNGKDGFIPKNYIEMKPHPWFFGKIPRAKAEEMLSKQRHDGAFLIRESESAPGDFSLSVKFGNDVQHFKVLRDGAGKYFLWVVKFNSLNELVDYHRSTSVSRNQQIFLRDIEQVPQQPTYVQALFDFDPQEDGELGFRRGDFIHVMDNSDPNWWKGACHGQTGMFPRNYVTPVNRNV

SHP2-C SH2 = test: as above
c-Src SH2 = test: as above
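Wherever SH2 binding enrichment of the phosphorylated peptide, bacterial display is given: peptide library displayed on the E. coli surface as eCPX fusions, selected cells deep-sequenced, score is each peptide's frequency after selection divided by its frequency in the input.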
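Wherever phosphorylation enrichment, bacterial display is given: 11-residue human phosphosite peptides and single-mutation variants displayed on the E. coli surface, counted by deep sequencing, each peptide's frequency after selection divided by its frequency in the unselected input library; frequency after pTyr selection over input frequency; kinase dosed for 20-30% of maximal phosphorylation in three min.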

Sequence of EPHB2 (P29323 whole entry, looked up): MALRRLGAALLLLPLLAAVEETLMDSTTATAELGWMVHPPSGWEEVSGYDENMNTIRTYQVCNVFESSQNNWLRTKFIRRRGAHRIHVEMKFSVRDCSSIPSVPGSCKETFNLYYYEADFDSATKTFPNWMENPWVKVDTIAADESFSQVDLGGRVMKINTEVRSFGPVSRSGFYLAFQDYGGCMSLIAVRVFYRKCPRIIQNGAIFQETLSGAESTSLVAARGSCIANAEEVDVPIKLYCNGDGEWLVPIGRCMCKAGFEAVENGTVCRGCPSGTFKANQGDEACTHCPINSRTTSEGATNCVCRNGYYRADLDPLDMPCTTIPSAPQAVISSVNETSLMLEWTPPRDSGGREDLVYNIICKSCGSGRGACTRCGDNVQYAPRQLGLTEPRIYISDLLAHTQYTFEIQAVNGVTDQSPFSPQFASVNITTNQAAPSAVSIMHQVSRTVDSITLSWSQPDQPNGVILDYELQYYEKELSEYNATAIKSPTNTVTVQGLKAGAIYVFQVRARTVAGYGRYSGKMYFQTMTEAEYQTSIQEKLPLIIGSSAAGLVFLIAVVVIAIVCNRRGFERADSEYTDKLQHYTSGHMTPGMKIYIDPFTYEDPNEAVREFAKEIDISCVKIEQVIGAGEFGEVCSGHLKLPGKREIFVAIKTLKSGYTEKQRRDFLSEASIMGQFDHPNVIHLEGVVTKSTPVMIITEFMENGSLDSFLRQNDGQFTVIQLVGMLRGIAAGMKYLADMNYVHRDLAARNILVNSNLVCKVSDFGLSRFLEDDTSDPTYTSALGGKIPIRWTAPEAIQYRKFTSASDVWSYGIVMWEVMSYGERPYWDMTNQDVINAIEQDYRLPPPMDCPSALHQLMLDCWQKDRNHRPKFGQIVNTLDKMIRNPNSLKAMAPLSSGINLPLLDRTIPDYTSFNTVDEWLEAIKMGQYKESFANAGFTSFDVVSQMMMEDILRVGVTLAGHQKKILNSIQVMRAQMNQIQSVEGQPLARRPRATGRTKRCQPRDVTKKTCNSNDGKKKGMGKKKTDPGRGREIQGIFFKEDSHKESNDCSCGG
Sequence of EPHB1 (P54762 whole entry, looked up): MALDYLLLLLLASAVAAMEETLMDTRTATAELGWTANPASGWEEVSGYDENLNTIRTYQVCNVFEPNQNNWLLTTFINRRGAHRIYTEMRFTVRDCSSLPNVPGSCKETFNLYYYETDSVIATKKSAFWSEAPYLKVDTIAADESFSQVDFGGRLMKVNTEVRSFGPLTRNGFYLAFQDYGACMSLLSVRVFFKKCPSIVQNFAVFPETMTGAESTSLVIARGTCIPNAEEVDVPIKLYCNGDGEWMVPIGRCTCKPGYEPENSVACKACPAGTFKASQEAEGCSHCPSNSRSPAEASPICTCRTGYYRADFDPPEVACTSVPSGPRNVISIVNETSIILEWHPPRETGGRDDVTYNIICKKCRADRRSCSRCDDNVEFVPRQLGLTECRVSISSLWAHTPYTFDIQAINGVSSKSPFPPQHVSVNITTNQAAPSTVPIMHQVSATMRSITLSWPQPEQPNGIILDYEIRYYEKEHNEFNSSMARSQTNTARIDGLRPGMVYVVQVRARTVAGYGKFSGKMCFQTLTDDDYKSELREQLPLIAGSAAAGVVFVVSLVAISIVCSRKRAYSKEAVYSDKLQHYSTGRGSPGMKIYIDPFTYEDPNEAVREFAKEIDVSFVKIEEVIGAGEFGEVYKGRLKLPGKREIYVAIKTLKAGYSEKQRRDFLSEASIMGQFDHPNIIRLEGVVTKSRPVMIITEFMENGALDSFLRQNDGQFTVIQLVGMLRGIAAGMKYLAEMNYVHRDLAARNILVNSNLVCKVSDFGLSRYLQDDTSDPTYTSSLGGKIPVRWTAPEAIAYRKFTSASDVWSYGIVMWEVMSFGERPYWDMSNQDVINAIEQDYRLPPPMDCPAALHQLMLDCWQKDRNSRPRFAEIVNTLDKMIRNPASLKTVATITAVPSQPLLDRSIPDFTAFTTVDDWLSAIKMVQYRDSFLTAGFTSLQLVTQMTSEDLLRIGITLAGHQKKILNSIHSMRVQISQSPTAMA

Row | Sequence | phosphorylation enrichment (AncSZ) | phosphorylation enrichment (EPHB1) | phosphorylation enrichment (EPHB2) | phosphorylation enrichment (FGFR1) | phosphorylation enrichment (FGFR3) | phosphorylation enrichment (Fer (mouse)) | phosphorylation enrichment (Fes) | phosphorylation enrichment (Fyn) | phosphorylation enrichment (Hck) | phosphorylation enrichment (Jak2) | phosphorylation enrichment (MERTK) | phosphorylation enrichment (c-Abl (mouse)) | phosphorylation enrichment (c-Src) | SH2 binding enrichment (Grb2 SH2) | SH2 binding enrichment (SHP2-C SH2) | SH2 binding enrichment (c-Src SH2)
1 | FSNKLYFQLEQ [PDPR_Y109_YF] | 1.35 | 0.849 | 0.664 | 3.05 | 2.7 | 0.661 | 1.19 | 0.636 | 0.694 | 1.49 | 1.64 | 0.796 | 0.621 | 0.626 | 0.562 | 0.523
2 | FSNPAYYVLEG [INPPL1_Y986_N982S] | 0.834 | 0.614 | 0.509 | 10.1 | 7.89 | 0.426 | 0.848 | 1.32 | 0.778 | 3.92 | 6.51 | 0.591 | 1.43 | 0.918 | 0.99 | 4.44
3 | FSTDFYRVGGH [NTRK2_Y707_YF] | 0.722 | 0.637 | 0.405 | 0.459 | 0.569 | 0.471 | 0.813 | 0.493 | 0.396 | 0.704 | 0.429 | 0.756 | 0.478 | 0.849 | 0.702 | 0.56
4 | FTAVGYHKHFT [NOMO1_Y1137_I1141F] | 0.614 | 0.252 | 0.366 | 0.449 | 0.589 | 0.449 | 0.935 | 0.431 | 0.426 | 0.782 | 0.424 | 0.491 | 0.552 | 0.865 | 1.5 | 1.04
5 | FTGDIYSNSNL [LZTR1_Y141_YF] | 0.957 | 0.903 | 0.738 | 0.667 | 0.502 | 2.87 | 0.849 | 6.36 | 7.46 | 0.756 | 1.1 | 0.831 | 5.54 | 0.721 | 0.586 | 0.415
6 | FTTIHYNFMCN [TP53_Y234_C229Y_YF] | 1.03 | 0.74 | 0.65 | 0.682 | 0.887 | 0.565 | 1.4 | 0.496 | 0.63 | 1.24 | 0.495 | 0.987 | 0.455 | 1.08 | 0.658 | 0.634
7 | FTYDPYSEEEP [IL2RB_Y387_D391E] | 1.22 | 0.652 | 0.572 | 0.5 | 0.818 | 0.601 | 1.25 | 1.14 | 0.825 | 1.27 | 0.524 | 0.915 | 1.69 | 0.92 | 0.699 | 0.817
8 | GAEIVYKSPVV [MAPT_Y711] | 0.892 | 0.747 | 0.581 | 0.478 | 0.672 | 0.416 | 0.904 | 0.533 | 0.497 | 0.694 | 0.558 | 18.3 | 0.526 | 0.758 | 0.63 | 0.418
9 | GAVGNYSGGLA [MGMT_Y158] | 0.57 | 0.554 | 0.48 | 0.453 | 0.61 | 0.483 | 0.765 | 0.374 | 0.408 | 0.419 | 0.422 | 0.43 | 0.335 | 0.551 | 0.622 | 0.367
10 | GCRSKYVRLWG [KCNQ1_Y184_G186R] | 0.628 | 0.383 | 0.409 | 0.462 | 0.486 | 0.472 | 0.696 | 0.425 | 0.461 | 0.636 | 0.444 | 0.492 | 0.495 | 1.38 | 1.6 | 1.54
11 | GDFFCYLAEVA [YWHAG_Y133_R132C_YF] | 1.33 | 0.863 | 0.655 | 0.557 | 0.922 | 0.865 | 1.52 | 0.702 | 0.608 | 1.39 | 0.546 | 1.12 | 0.484 | 0.618 | 0.701 | 0.491
12 | GEEIKDMLWLS [OTC_Y55_Y55D] | 0.913 | 0.448 | 0.462 | 0.475 | 0.566 | 0.428 | 1 | 0.475 | 0.446 | 0.822 | 0.425 | 0.672 | 0.361 | 0.807 | 0.584 | 0.501
13 | GEEIKYMLWLS [OTC_Y55] | 1.24 | 0.592 | 0.62 | 0.682 | 0.934 | 0.745 | 1.28 | 0.493 | 0.645 | 1.21 | 0.703 | 1.19 | 0.518 | 0.646 | 0.714 | 0.346
14 | GEVLVYVEDPA [FLNA_Y319] | 1.33 | 0.798 | 0.728 | 0.694 | 0.81 | 0.85 | 1.41 | 0.529 | 0.589 | 1.34 | 0.478 | 0.917 | 0.636 | 0.706 | 0.553 | 0.45
15 | GGMTEYKLVVV [KRAS_Y4] | 0.852 | 0.514 | 0.569 | 1.01 | 0.776 | 0.423 | 0.929 | 0.488 | 0.446 | 0.685 | 0.368 | 0.539 | 0.369 | 0.985 | 2.14 | 0.649
16 | GGPTYYIDTNA [ACTL6A_Y69] | 0.885 | 0.698 | 0.514 | 1.09 | 0.963 | 0.407 | 0.893 | 0.926 | 0.899 | 0.727 | 1.08 | 0.555 | 0.778 | 0.822 | 0.694 | 0.679
17 | GGQVFHNSEYG [FLT4_Y1333_Y1333H] | 0.581 | 0.438 | 0.431 | 0.386 | 0.535 | 0.349 | 0.712 | 0.362 | 0.377 | 0.67 | 0.314 | 0.857 | 0.425 | 0.665 | 0.655 | 0.474

Row | Sequence | phosphorylation enrichment (AncSZ) | phosphorylation enrichment (EPHB1) | phosphorylation enrichment (EPHB2) | phosphorylation enrichment (FGFR1) | phosphorylation enrichment (FGFR3) | phosphorylation enrichment (Fer (mouse)) | phosphorylation enrichment (Fes) | phosphorylation enrichment (Fyn) | phosphorylation enrichment (Hck) | phosphorylation enrichment (Jak2) | phosphorylation enrichment (MERTK) | phosphorylation enrichment (c-Abl (mouse)) | phosphorylation enrichment (c-Src) | SH2 binding enrichment (Grb2 SH2) | SH2 binding enrichment (SHP2-C SH2) | SH2 binding enrichment (c-Src SH2)
18 | GGQVFYNSEFG [FLT4_Y1333_YF] | 1.09 | 0.619 | 0.617 | 0.551 | 0.766 | 0.53 | 1.11 | 0.479 | 0.532 | 1.25 | 0.546 | 0.884 | 0.838 | 0.623 | 0.735 | 0.45
19 | GHLYAYDWIRI [BEST1_Y227_S231R] | 1.44 | 3.44 | 2.42 | 4.35 | 2.73 | 15.8 | 3.03 | 1.84 | 3.12 | 0.941 | 9.27 | 0.857 | 2.28 | 1.25 | 1.31 | 1.97
20 | GHNDVYISEHV [GRIN2A_Y1423] | 0.552 | 0.331 | 0.447 | 0.393 | 0.478 | 0.317 | 0.618 | 0.416 | 0.438 | 0.407 | 0.332 | 0.33 | 0.395 | 1.1 | 0.535 | 0.456
21 | GHNNVYISEHV [GRIN2A_Y1423_D1421N] | 0.734 | 0.374 | 0.459 | 0.421 | 0.463 | 0.393 | 0.6 | 0.475 | 0.476 | 0.769 | 0.419 | 0.522 | 0.425 | 0.915 | 0.759 | 0.469
22 | GITTGYLVLKE [DNMT3B_Y588_A585T] | 0.668 | 0.39 | 0.532 | 0.456 | 0.572 | 0.542 | 0.797 | 0.404 | 0.438 | 0.616 | 0.334 | 0.389 | 0.371 | 0.907 | 2.06 | 0.746
23 | GKMPQYLESMQ [CYB5R3_Y130_S128P] | 0.741 | 0.492 | 0.412 | 0.517 | 0.554 | 0.304 | 0.701 | 0.537 | 0.466 | 0.73 | 0.473 | 0.614 | 0.459 | 0.906 | 0.932 | 0.571
24 | GLDGSYLLRDS [SH2D1A_Y29] | 0.574 | 0.371 | 0.387 | 0.426 | 0.464 | 0.39 | 0.622 | 0.413 | 0.563 | 0.578 | 0.413 | 0.471 | 0.397 | 0.756 | 0.636 | 0.42
25 | GLRQGYFVEAQ [APCS_Y142] | 0.945 | 0.526 | 0.505 | 0.559 | 0.637 | 0.42 | 1.08 | 0.366 | 0.408 | 0.807 | 0.36 | 0.529 | 0.327 | 0.85 | 0.718 | 0.618
26 | GNEEAYGRSHI [FAM171B_Y522] | 0.825 | 0.448 | 0.438 | 0.378 | 0.575 | 0.456 | 0.823 | 0.425 | 0.471 | 0.905 | 0.455 | 0.706 | 0.471 | 0.796 | 0.801 | 0.444
27 | GNLLIYTEFGK [HGD_Y166] | 1.28 | 1.81 | 1.13 | 0.56 | 0.731 | 0.54 | 1.28 | 7.36 | 4.65 | 1.14 | 4.24 | 3.12 | 5.93 | 0.687 | 0.668 | 0.471
28 | GPGLVYGVANK [FLNB_Y1833] | 0.531 | 0.421 | 0.405 | 0.648 | 0.483 | 0.51 | 0.689 | 1.59 | 3.44 | 0.718 | 0.422 | 0.545 | 2.83 | 0.732 | 0.643 | 0.551
29 | GQLIFYAPPEW [CNTN6_Y315] | 1.39 | 0.938 | 3.08 | 0.513 | 0.731 | 2.04 | 1.18 | 0.576 | 0.829 | 1.5 | 3.46 | 2.95 | 0.822 | 1.09 | 0.963 | 0.781
30 | GQSKGYRPKLY [SIPA1L3_Y1376] | 0.43 | 0.316 | 0.393 | 0.357 | 0.454 | 0.411 | 0.489 | 0.45 | 0.4 | 0.416 | 0.431 | 0.329 | 0.387 | 0.662 | 0.824 | 0.531
31 | GREAEYSEKHG [EPHB4_Y574_D576E] | 0.681 | 0.514 | 0.487 | 0.418 | 0.544 | 0.398 | 0.697 | 0.354 | 0.444 | 0.59 | 0.368 | 0.631 | 0.396 | 0.742 | 0.476 | 0.442
32 | GRKTLYSFFSP [UNG_Y8_Q4R] | 0.529 | 0.709 | 0.603 | 0.571 | 0.641 | 3.82 | 0.825 | 1.13 | 2.26 | 0.91 | 12 | 0.56 | 1.9 | 1.57 | 0.978 | 1.17
33 | GRLPEYNTPIA [CCDC151_Y542_R545P] | 0.704 | 0.515 | 0.432 | 0.388 | 0.397 | 0.317 | 0.643 | 0.442 | 0.325 | 0.662 | 0.407 | 0.716 | 0.463 | 0.807 | 0.479 | 0.841
